# Measured values taken from the supplement of paper PMC11246515.
# ± gives the standard deviation of the averaged measurements.
# Test: total protein half-life in vivo (active degradation + dilution); higher = more stable protein
# [1] = E. coli NCM3722 delta-clpP delta-lon delta-hslV, growth: N-lim chemostat, doubling time 6 h
# [2] = E. coli NCM3722 delta-clpP, growth: N-lim chemostat, doubling time 6 h
# [3] = E. coli NCM3722 delta-hslV, growth: N-lim chemostat, doubling time 6 h
# [4] = E. coli NCM3722 delta-lon, growth: N-lim chemostat, doubling time 6 h
# [5] = E. coli NCM3722 delta-smpB, growth: N-lim chemostat, doubling time 6 h
# [6] = wild type E. coli NCM3722, growth: C-lim chemostat, doubling time 3 h
# [7] = wild type E. coli NCM3722, growth: C-lim chemostat, doubling time 12 h
# [8] = wild type E. coli NCM3722, growth: N-lim chemostat, doubling time 6 h
# [9] = wild type E. coli NCM3722, growth: N-lim chemostat, doubling time 12 h
# [10] = wild type E. coli NCM3722, growth: P-lim chemostat, doubling time 6 h
# [11] = wild type E. coli NCM3722, growth: P-lim chemostat, doubling time 12 h
# [12] = wild type E. coli NCM3722, growth: C-lim chemostat, doubling time 6 h
Sequence,total protein half-life in vivo [1] [h],total protein half-life in vivo [2] [h],total protein half-life in vivo [3] [h],total protein half-life in vivo [4] [h],total protein half-life in vivo [5] [h],total protein half-life in vivo [6] [h],total protein half-life in vivo [7] [h],total protein half-life in vivo [8] [h],total protein half-life in vivo [9] [h],total protein half-life in vivo [10] [h],total protein half-life in vivo [11] [h],total protein half-life in vivo [12] [h]
MLIRVEIPIDAPGIDALLRRSFESDAEAKLVHDLREDGFLTLGLVATDDEGQVIGYVAFSPVDVQGEDLQWVGMAPLAVDEKYRGQGLARQLVYEGLDSLNEFGYAAVVTLGDPALYSRFGFELAAHHDLRCRWPGTESAFQVHRLADDALNGVTGLVEYHEHFNRF,5.29 ± 0.2,4.46 ± 0.13,4.22 ± 0.15,4.44 ± 0.37,3.73 ± 0.17,3.02 ± 0.3,9.91 ± 0.78,4.51 ± 0.72,7.82 ± 0.18,5.72 ± 0.43,11.7 ± 0.65,
MALLPDKEKLLRNFLRCANWEEKYLYIIELGQRLPELRDEDRSPQNSIQGCQSQVWIVMRQNAQGIIELQGDSDAAIVKGLIAVVFILYDQMTPQDIVNFDVRPWFEKMALTQHLTPSRSQGLEAMIRAIRAKAAALS,4.3 ± 0.53,3.71 ± 0.31,,5.07 ± 1.1,4.012 ± 0.015,3.39,9.46 ± 0.25,3.509 ± 0.018,5.75 ± 0.11,4.85 ± 0.13,10.1 ± 1.2,4.57 ± 0.48
MAEIGIFVGTMYGNSLLVAEEAEAILTAQGHKATVFEDPELSDWLPYQDKYVLVVTSTTGQGDLPDSIVPLFQGIKDSLGFQPNLRYGVIALGDSSYVNFCNGGKQFDALLQEQSAQRVGEMLLIDASENPEPETESNPWVEQWGTLLS,6.12 ± 0.9,6.03 ± 1.5,5.34 ± 0.23,6 ± 0.2,5.34 ± 0.1,3.57 ± 0.5,13.42 ± 0.023,5.7 ± 0.42,9.75 ± 0.96,6.03 ± 0.35,,5.8 ± 0.3
MSKAGKITAAISGAFLLLIVVAIILIATFDWNRLKPTINQKVSAELNRPFAIRGDLGVVWERQKQETGWRSWVPWPHVHAEDIILGNPPDIPEVTMVHLPRVEATLAPLALLTKTVWLPWIKLEKPDARLIRLSEKNNNWTFNLANDDNKDANAKPSAWSFRLDNILFDQGRIAIDDKVSKADLEIFVDPLGKPLPFSEVTGSKGKADKEKVGDYVFGLKAQGRYNGEPLTGTGKIGGMLALRGEGTPFPVQADFRSGNTRVAFDGVVNDPMKMGGVDLRLKFSGDSLGDLYELTGVLLPDTPPFETDGRLVAKIDTEKSSVFDYRGFNGRIGDSDIHGSLVYTTGKPRPKLEGDVESRQLRLADLGPLIGVDSGKGAEKSKRSEQKKGEKSVQPAGKVLPYDRFETDKWDVMDADVRFKGRRIEHGSSLPISDLSTHIILKNADLRLQPLKFGMAGGSIAANIHLEGDKKPMQGRADIQARRLKLKELMPDVELMQKTLGEMNGDAELRGSGNSVAALLGNSNGNLKLLMNDGLVSRNLMEIVGLNVGNYIVGAIFGDDEVRVNCAAANLNIANGVARPQIFAFDTENALINVTGTASFASEQLDLTIDPESKGIRIITLRSPLYVRGTFKNPQAGVKAGPLIARGAVAAALATLVTPAAALLALISPSEGEANQCRTILSQMKK,6.24 ± 0.57,5.9 ± 0.17,6.13 ± 0.039,6.42 ± 0.4,5.438 ± 0.026,3.09 ± 0.22,10.9 ± 1.2,5.57 ± 0.16,10.9 ± 0.42,5.49 ± 0.3,9.41 ± 0.73,5.72 ± 0.19
MTLPKIKQVRAWFTGGATAEKGAGGGDYHDQGANHWIDDHIATPMSKYRDYEQSRQSFGINVLGTLVVEVEAENGQTGFAVSTAGEMGCFIVEKHLNRFIEGKCVSDIKLIHDQMLSATLYYSGSGGLVMNTISCVDLALWDLFGKVVGLPVYKLLGGAVRDEIQFYATGARPDLAKEMGFIGGKMPTHWGPHDGDAGIRKDAAMVADMREKCGEDFWLMLDCWMSQDVNYATKLAHACAPYNLKWIEECLPPQQYESYRELKRNAPVGMMVTSGEHHGTLQSFRTLSETGIDIMQPDVGWCGGLTTLVEIAAIAKSRGQLVVPHGSSVYSHHAVITFTNTPFSEFLMTSPDCSTMRPQFDPILLNEPVPVNGRIHKSVLDKPGFGVELNRDCNLKRPYSH,,,,,,2.53 ± 0.29,7.51 ± 1.1,> 8,,,9.69,3.97 ± 0.25
MTINFRRNALQLSVAALFSSAFMANAADVPQVKVTVTDKQCEPMTITVNAGKTQFIIQNHSQKALEWEILKGVMVVEERENIAPGFSQKMTANLQPGEYDMTCGLLTNPKGKLIVKGEATADAAQSDALLSLGGAITAYKAYVMAETTQLVTDTKAFTDAIKAGDIEKAKALYAPTRQHYERIEPIAELFSDLDGSIDAREDDYEQKAADPKFTGFHRLEKALFGDNTTKGMDQYAEQLYTDVVDLQKRISELAFPPSKVVGGAAGLIEEVAASKISGEEDRYSHTDLWDFQANVEGSQKIVDLLRPQLQKANPELLAKVDANFKKVDTILAKYRTKDGFETYDKLTDADRNALKGPITALAEDLAQLRGVLGLD [P0AB24],4.39 ± 0.98,4.5 ± 0.11,6.43 ± 1.4,5.84 ± 0.061,4.58 ± 1.5,2.967 ± 0.019,12.8 ± 0.93,5.73 ± 0.24,10.3 ± 0.23,5.01 ± 0.35,12.2 ± 2.8,6.25 ± 0.72
MTITSLDGYRWLKNDIIRGNFQPDEKLRMSLLTSRYALGVGPLREALSQLVAERLVTVVNQKGYRVASMSEQELLDIFDARANMEAMLVSLAIARGGDEWEADVLAKAHLLSKLEACDASEKMLDEWDLRHQAFHTAIVAGCGSHYLLQMRERLFDLAARYRFIWLRRTVLSVEMLEDKHDQHQTLTAAVLARDTARASELMRQHLLTPIPIIQQAMAGN,5.31 ± 0.62,2.81 ± 0.13,2.106 ± 0.011,3.54 ± 0.24,2.18 ± 0.088,1.96 ± 0.16,5.04 ± 0.48,1.99 ± 0.21,2.52 ± 0.064,1.56,3.14 ± 1.1,3.69 ± 0.43
